# Earlier results in paper PMC10213764 (Acta Pharmaceutica Sinica. B, 2023).
# Conditions: continuous agitation, 37 °C
substance,measurement,value
native insulin: Native insulin was purchased from Life Technologies,"time free from aggregation, formulated with CB[7]‒PEG conjugate",> 100 days
